According to patent US8183228B2, “Anticoagulant antithrombotic dual inhibitors comprising a biotin label” (MSD OSS B.V. Netherlands, priority 2005, dated 2012):
Counter-ions that a name gives are not always drawn.

Experiment: Pharmacokinetics - neutralization experiment with avidin i.v. in rat
Format: in vivo
Conditions: s.c. 500 nmol/kg
Protocol: 3.2 Pharmacokinetics—Neutralization Experiment:
Rats were treated with compound 10, 12, or 27 at a dose of 100 nmol/kg s.c. At t=1 h, a blood sample was taken and 10 mg/kg of Avidin (from egg white, Sigma) was administered i.v. to the rats treated with compound 10 or 12. Blood was sampled at 0.5-1-3-6 and 23 hours subsequently. The blood was treated as described in the pharmacokinetic experiment and the concentration of the samples was determined by measuring the (residual) anti-Xa activity. (FIG. 8)
In a separate experiment compound 10, 17 or 26 was administered at a dose of 500 nmol/kg s.c. after which blood was collected at 24 hours. Then 10 mg/kg avidin was administered intravenously and blood was collected at 25 and 26 hours. (FIG. 9)

CO[C@H]1O[C@H](COS(=O)(=O)O)[C@@H](O[C@@H]2O[C@@H](C(=O)O)[C@@H](O[C@H]3O[C@H](COS(=O)(=O)O)[C@@H](O[C@@H]4O[C@H](C(=O)O)[C@@H](O[C@H]5O[C@H](COS(=O)(=O)O)[C@@H](OCCOCCOCCOCCNC(=O)[C@H](CCCCN(C)C(=O)CCCC[C@@H]6SC[C@@H]7NC(=O)N[C@@H]76)NC(=O)COCCOCCOCCOCCNC(=O)c6cccc(S(=O)(=O)N[C@@H](Cc7ccc(OCCCCC8CCNCC8)cc7)C(=O)O)c6)[C@H](OC)[C@H]5OC)[C@H](OC)[C@H]4OC)[C@H](OS(=O)(=O)O)[C@H]3OS(=O)(=O)O)[C@H](OC)[C@H]2OC)[C@H](OS(=O)(=O)O)[C@H]1OS(=O)(=O)O [Compound 26, sodium salt]
level at time molar at 24 h (plasma, sc, 24 h, before avidin, read-out: Plasma level T = 24 h): 1070 ± 58 nM | Plasma level T = 26 h (2 hours after avidin 10 mg/kg i.v. at t = 24 h): 361 ± 26 nM | % reduction of plasma concentration (within 2 hours after avidin 10 mg/kg i.v. at t = 24 h, sodium salt): 66%
